Measured values taken from US20130347134A1 (published 2013).
Positions count from the first letter of the chain named. In names and notes the source's numbering stands.

B1: recombinant human VWF-A1 containing 1309I>V and 1326H>R (ligand)
chain: QEPGGLVVPPTDAPVSPTTLYVEDISEPPLHDFYCSRLLDLVFLLDGSSRLSEAEFEVLKAFVVDMMERLRVSQKWVRVAVVEYHDGSRAYIGLKDRKRPSELRRIASQVKYAGSQVASTSEVLKYTLFQIFSKIDRPEASRIALLLMASQEPQRMSRNFVRYVQGLKKKKVIVIPVGIGPHANLKQIRLIEKQAPENKAFVLSSVDELEQQRDEIVSYLCDLAPEAPPPTLPPH
B2: recombinant human VWF-A1 containing 1309I>V and the type 2M mutation 1324G>S (ligand)
chain: B1 chain with G87S, R89H
B3: murine platelet glycoprotein Ib alpha (GPIb α) on mouse platelets (receptor, UniProt O35930 17-734, looked up)
chain: QHTCSISKVTSLLEVNCENKKLTALPADLPADTGILHLGENQLGTFSTASLVHFTHLTYLYLDRCELTSLQTNGKLIKLENLDLSHNNLKSLPSLGWALPALTTLDVSFNKLGSLSPGVLDGLSQLQELYLQNNDLKSLPPGLLLPTTKLKKLNLANNKLRELPSGLLDGLEDLDTLYLQRNWLRTIPKGFFGTLLLPFVFLHANSWYCDCEILYFRHWLQENANNVYLWKQGVDVKDTTPNVASVRCANLDNAPVYSYPGKGCPTSSGDTDYDDYDDIPDVPATRTEVKFSTNTKVHTTHWSLLAAAPSTSQDSQMISLPPTHKPTKKQSTFIHTQSPGFTTLPETMESNPTFYSLKLNTVLIPSPTTLEPTSTQATPEPNIQPMLTTSTLTTPEHSTTPVPTTTILTTPEHSTIPVPTTAILTTPKPSTIPVPTTATLTTLEPSTTPVPTTATLTTPEPSTTLVPTTATLTTPEHSTTPVPTTATLTTPEHSTTPVPTTATLTTPEPSTTLTNLVSTISPVLTTTLTTPESTPIETILEQFFTTELTLLPTLESTTTIIPEQNSFLNLPEVALVSSDTSESSPFLNSDFCCFLPLGFYVLGLLWLLFASVVLILLLTWTWHVTPHSLDMEQSAALATSTHTTSLEVQRARQVTMPRAWLLFLQGSLPTFRSSLFLWVRPNGRVGPLVAGRRPSALSQGRGQDLLGTVGIRYSGHSL
notes: whole, on cells; Native receptor on mouse platelets or whole blood; also called murine GPIb α; mGPIb-α
B4: recombinant murine rVWF-A1 1326R>H (residues 1238 to 1471), Example 3 (ligand)
chain: QEPGGLVAPPTDAPVSSTTPYVEDTPEPPLHNFYCSKLLDLVFLLDGSSMLSEAEFEVLKAFVVGMMERLHISQKRIRVAVVEYHDGSHAYLELKARKRPSELRRITSQIKYTGSQVASTSEVLKYTLFQIFGKIDRPEASHITLLLTASQEPPRMARNLVRYVQGLKKKKVIVIPVGIGPHASLKQIRLIEKQAPENKAFLLSGVDELEQRRDEIVSYLCDLAPEAPAPTQPP
B5: recombinant wild-type murine VWF-A1 protein, His-tagged (amino acids 1233 to 1471, pQE9), Examples 1-2 (ligand)
chain: TCEACQEPGGLVAPPTDAPVSSTTPYVEDTPEPPLHNFYCSKLLDLVFLLDGSSMLSEAEFEVLKAFVVGMMERLHISQKRIRVAVVEYHDGSRAYLELKARKRPSELRRITSQIKYTGSQVASTSEVLKYTLFQIFGKIDRPEASHITLLLTASQEPPRMARNLVRYVQGLKKKKVIVIPVGIGPHASLKQIRLIEKQAPENKAFLLSGVDELEQRRDEIVSYLCDLAPEAPAPTQPP
notes: Disulfide C1272-C1458; also called mouse VWF-A1; M VWF-A1; not shown: 10 vector-derived N-terminal amino acids including 6xHis (pQE9)
B6: recombinant murine VWF-A1 containing the type 2B mutation I1309V (1309I>V) (ligand)
chain: B5 chain with I77V
notes: not shown: 10 vector-derived N-terminal amino acids including 6xHis (pQE9)
B7: recombinant murine VWF-A1 with histidine for arginine at position 1326 (Example 1) (ligand)
chain: B5 chain with R94H
notes: also called mutated murine protein; not shown: 10 vector-derived N-terminal amino acids including 6xHis (pQE9)

Columns and labels:
[1] = target: T1, human platelet glycoprotein Ib alpha (GPIb α) on human platelets (human, UniProt P07359 17-652); assay: interaction times of VWF-A1-coated beads on surface-immobilized platelets, wall shear stress 1 dyn cm^-2
T1 construct: whole, on cells; Native receptor on washed platelets or whole blood; also called GPIb alpha; hGPIb-α
Experimental: (§1) The duration of these interactions are measured by recording images from a Nikon X60 DIC objective (oil immersion) viewed at a frame rate of 235 fps (Speed Vision Technologies, San Diego, Calif.) and subjected to wall shear stresses (WSS) ranging from 0.5 to 3.0 dyn cm⁻². […] The force acting on the i tether bond was calculated from force balance equations and koff plotted as a function of these forces. […] Because these platelets cannot activate, the kinetics should be reflective of GPIb α in the resting state.

[2] = target: T1, human platelet glycoprotein Ib alpha …; assay: interaction times of VWF-A1-coated beads on surface-immobilized platelets, wall shear stress 1 dyn cm^-2; 1309I>V + 1326H>R double mutant; 1 dyn cm^-2 wall shear stress
Experimental: as §1

[3] = target: T1, human platelet glycoprotein Ib alpha …; assay: human platelet attachment in flow to human VWF-A1 as a function of wall shear rate
[4] = target: T2, murine plasma VWF containing the 1326R>H mutation (VWF^1326R>H) (mouse, UniProt Q8CIZ8 764-2813); assay: statement in Example 1; binding reduced
T2 construct: also called R1326H mutant mouse VWF; mutant murine VWF

[5] = target: T3, murine plasma von Willebrand factor (VWF), wild type (mouse, UniProt Q8CIZ8 764-2813); assay: mouse whole blood perfused 4 min over surface-immobilized plasma VWF, 1600 s-1
T3 construct: Plasma-derived multimeric mouse VWF; also called mouse VWF; murine VWF
Experimental: Ex vivo platelet adhesion studies. Experiments were performed in a parallel-plate flow chamber as previously described (Offermanns, S., et al., 2006). […] Subsequently, the plate was washed and non-specific interactions blocked by the addition of TBS containing 3% BSA, pH 7.4 (1 hour, 37° C.). Human or murine plasma obtained from heparinized whole blood was added and the plates placed at 37° C. for an additional 2 hours. […] The number of platelets attached per unit area (0.07 mm²) and translocation velocities were determined by off-line analysis (Image-Pro Plus, Media Cybernetics). For GPIb α inhibition studies, the function-blocking mAb 6D1 (20 μg/ml) or mAb SZ2 (20 μg/ml; Beckman Coulter, Brea, Calif.) was added to anticoagulated human blood for 30 minutes prior to use. Experiments were performed in triplicate on two separate days. An ELISA was used to ensure equivalent coating concentration of plasma and recombinant proteins (Denis, C. et al., 1998).

[6] = target: T4, mouse plasma VWF containing the majority of the human A1 domain (amino acids 1240P through 1481G of human VWF) (mouse VWF with human A1 domain, UniProt Q8CIZ8 764-2813, limits assumed); assay: parallel-plate flow system: WT mouse blood infused over surface-immobilized plasma VWF
T4 construct: Plasma VWF from homozygous VWF-HA1 mice; also called VWF-HA1; VWF HA1

[7] = target: T1, human platelet glycoprotein Ib alpha …; assay: parallel-plate flow chamber: human whole blood perfused over the surface-immobilized recombinant A1 protein, shear rate 1600 s^-1, accumulated platelets counted
[8] = target: B3; assay: transient tethers of VWF-A1-coated beads on surface-immobilized murine platelets; shear stress 0.5 dyn cm-2; R2 0.96
Experimental: (§2) The force acting on the i tether bond was calculated from force balance equations and koff plotted as a function of these forces. […] Because these platelets cannot activate, the kinetics should be reflective of GPIb α in the resting state.
(§3) This antibody was made by immunizing Fischer 344 rats (3-4 months old) with recombinant WT protein. […] Spleens from animals with the highest antibody titers were harvested and splenocytes fused with Sp2/0 mouse myeloma cells (Kohler, et al., 1975).

[9] = target: B3; assay: transient tethers of VWF-A1-coated beads on surface-immobilized murine platelets; shear stress 3.0 dyn cm-2; R2 0.98
Experimental: as §2, §3

[10] = target: T1, human platelet glycoprotein Ib alpha …; assay: human platelets (5x10^7/ml) perfused over coverslips coated with VWF-A1 (100 µg/ml), parallel plate flow chamber, 800 s-1
Experimental: (§4) The protein was subsequently used in a series of in vitro flow chamber assays to assess function. […] After 5 minutes of continuous flow, adherent platelets were quantified.

[11] = target: B3; assay: transient tethers of VWF-A1-coated beads on surface-immobilized murine platelets; shear stress 2.0 dyn cm-2; R2 0.95
Experimental: as §2, §3

[12] = target: B3; assay: transient tethers of VWF-A1-coated beads on surface-immobilized murine platelets; shear stress 1.0 dyn cm-2; R2 0.95
Experimental: as §2, §3

[13] = target: B3; assay: transient tethers of VWF-A1-coated beads on surface-immobilized murine platelets; shear stress 2.0 dyn cm-2; R2 0.98
Experimental: as §2, §3

[14] = target: B3; assay: platelet adhesion to coated protein, wall shear rate 800 s^-1
Experimental: as §4
(§5) Subsequently, the ability of murine and human platelets to interact with this mutant protein substrate was evaluated at a wall shear rate of 800 s⁻¹.

[15] = target: B3; assay: platelet translocation on coated protein, wall shear rate 800 s^-1
Experimental: as §4, §5

[16] = target: T1, human platelet glycoprotein Ib alpha …; assay: human platelets perfused over immobilized mutant VWF-A1, wall shear rate 800 s-1

T4 sequence (Q8CIZ8 other isoform, or with tags, fused parts or gaps limits assumed): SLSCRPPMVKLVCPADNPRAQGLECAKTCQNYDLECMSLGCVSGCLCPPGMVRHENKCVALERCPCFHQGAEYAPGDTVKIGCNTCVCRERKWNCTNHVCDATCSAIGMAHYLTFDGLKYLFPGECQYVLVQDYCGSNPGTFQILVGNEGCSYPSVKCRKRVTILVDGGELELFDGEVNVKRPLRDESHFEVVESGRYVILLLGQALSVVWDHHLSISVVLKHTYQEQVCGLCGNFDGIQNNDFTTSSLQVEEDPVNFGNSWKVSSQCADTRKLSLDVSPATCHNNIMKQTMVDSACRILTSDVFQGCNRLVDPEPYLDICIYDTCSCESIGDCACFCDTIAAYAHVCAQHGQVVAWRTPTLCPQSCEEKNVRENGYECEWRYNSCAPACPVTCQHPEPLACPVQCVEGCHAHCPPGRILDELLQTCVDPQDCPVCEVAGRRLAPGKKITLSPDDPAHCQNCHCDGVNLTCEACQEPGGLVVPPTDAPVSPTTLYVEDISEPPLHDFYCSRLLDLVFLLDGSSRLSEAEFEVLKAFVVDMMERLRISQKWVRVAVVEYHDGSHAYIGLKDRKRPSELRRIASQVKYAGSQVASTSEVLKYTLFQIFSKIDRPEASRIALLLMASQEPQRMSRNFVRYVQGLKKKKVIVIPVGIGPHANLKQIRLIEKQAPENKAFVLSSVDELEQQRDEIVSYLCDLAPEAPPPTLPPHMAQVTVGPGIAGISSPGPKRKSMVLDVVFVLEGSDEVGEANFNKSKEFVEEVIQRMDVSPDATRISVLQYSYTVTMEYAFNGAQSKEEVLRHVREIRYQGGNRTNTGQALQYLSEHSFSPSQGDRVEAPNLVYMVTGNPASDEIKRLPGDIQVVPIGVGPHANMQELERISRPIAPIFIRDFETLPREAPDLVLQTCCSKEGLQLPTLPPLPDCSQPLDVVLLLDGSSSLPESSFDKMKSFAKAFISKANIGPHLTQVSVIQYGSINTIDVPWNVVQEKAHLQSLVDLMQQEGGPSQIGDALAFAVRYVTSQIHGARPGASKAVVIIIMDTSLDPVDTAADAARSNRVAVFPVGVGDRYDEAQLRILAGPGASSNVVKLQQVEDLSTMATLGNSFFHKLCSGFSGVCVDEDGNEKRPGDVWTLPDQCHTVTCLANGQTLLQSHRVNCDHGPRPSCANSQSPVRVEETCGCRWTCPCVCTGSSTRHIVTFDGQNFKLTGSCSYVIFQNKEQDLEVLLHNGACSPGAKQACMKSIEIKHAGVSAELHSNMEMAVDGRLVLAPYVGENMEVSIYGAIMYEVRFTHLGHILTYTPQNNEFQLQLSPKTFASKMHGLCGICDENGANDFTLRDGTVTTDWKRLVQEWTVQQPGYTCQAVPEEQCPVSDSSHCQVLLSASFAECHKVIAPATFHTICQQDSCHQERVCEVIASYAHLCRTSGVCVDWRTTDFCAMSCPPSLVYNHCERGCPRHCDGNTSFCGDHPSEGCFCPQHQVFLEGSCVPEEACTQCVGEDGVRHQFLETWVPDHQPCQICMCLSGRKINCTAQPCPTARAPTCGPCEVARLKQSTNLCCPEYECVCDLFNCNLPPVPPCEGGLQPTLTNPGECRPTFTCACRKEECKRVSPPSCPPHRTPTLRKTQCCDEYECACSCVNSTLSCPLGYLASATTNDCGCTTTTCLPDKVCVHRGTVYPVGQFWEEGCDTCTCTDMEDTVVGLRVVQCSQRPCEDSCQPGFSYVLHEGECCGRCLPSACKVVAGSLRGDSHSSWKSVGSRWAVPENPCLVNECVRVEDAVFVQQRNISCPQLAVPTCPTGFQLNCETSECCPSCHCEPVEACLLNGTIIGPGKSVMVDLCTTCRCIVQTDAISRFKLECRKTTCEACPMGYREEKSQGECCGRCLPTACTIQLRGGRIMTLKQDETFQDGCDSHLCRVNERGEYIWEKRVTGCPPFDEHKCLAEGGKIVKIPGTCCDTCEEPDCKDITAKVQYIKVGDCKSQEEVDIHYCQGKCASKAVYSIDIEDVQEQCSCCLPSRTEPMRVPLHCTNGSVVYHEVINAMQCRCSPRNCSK
T3 sequence (Q8CIZ8 other isoform, or with tags, fused parts or gaps limits assumed): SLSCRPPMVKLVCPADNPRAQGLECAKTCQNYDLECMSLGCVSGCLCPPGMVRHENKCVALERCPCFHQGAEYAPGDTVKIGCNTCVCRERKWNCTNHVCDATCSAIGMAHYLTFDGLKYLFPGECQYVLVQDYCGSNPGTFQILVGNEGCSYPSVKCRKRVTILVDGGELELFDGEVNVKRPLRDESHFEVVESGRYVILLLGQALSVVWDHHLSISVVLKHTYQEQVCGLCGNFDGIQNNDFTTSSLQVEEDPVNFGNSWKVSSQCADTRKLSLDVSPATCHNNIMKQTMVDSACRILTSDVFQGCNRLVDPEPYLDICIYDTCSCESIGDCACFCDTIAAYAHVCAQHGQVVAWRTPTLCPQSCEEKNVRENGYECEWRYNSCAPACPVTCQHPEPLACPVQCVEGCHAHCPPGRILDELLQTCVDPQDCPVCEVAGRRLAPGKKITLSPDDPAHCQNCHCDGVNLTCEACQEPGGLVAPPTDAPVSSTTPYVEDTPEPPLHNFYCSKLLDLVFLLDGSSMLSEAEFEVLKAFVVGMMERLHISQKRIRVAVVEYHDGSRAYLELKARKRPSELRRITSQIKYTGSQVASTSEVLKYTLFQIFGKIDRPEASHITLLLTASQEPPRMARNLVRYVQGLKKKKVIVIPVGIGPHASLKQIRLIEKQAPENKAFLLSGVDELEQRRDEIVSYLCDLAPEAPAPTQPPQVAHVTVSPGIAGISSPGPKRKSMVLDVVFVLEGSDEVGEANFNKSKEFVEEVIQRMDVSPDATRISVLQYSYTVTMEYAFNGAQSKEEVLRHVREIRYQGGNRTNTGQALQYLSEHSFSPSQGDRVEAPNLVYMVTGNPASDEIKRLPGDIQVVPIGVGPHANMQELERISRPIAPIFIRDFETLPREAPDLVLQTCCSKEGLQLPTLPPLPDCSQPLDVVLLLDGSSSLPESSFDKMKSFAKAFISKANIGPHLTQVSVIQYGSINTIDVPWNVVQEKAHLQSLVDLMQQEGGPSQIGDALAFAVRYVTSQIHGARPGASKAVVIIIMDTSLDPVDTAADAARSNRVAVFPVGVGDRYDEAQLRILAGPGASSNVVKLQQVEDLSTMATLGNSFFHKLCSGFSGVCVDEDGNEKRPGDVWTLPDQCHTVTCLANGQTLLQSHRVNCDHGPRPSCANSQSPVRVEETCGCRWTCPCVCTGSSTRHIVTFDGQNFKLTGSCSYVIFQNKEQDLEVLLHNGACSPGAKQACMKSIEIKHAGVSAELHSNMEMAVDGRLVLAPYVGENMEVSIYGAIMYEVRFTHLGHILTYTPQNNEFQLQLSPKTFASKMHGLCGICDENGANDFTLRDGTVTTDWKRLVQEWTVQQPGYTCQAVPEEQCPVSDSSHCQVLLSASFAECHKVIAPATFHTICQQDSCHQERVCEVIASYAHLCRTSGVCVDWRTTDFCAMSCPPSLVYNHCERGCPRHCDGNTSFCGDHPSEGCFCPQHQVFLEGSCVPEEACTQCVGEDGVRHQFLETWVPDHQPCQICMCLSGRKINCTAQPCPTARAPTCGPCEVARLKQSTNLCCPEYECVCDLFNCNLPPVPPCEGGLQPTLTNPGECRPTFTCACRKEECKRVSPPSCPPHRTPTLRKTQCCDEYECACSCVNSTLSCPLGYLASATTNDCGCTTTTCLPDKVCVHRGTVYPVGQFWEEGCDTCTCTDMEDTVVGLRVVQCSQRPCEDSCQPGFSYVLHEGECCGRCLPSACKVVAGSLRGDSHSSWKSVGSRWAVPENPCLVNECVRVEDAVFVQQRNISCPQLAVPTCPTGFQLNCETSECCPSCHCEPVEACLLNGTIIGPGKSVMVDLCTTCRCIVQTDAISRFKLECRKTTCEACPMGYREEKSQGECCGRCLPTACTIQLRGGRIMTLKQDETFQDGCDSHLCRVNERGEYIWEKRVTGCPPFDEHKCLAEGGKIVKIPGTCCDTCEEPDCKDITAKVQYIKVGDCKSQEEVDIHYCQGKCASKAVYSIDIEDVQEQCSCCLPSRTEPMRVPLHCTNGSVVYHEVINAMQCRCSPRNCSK

Binder: B1
fold reduction in koff versus the single 1326H>R mutant [1]: 2 fold | koff [2]: 8.5 s⁻¹

Binder: B2
binding result [3]: no binding

Binder: B3
binding result [4]: binds | binding result [5]: binds | binding result [6]: no binding

Binder: B4
binding result [7]: binds

Binder: B5
koff [8]: 5.1 s⁻¹ | koff [9]: 9.9 s⁻¹ | binding result [10]: binds | koff [11]: 8.4 s⁻¹

Binder: B6
koff [8]: 0.7 s⁻¹ | koff [12]: 0.9 s⁻¹ | koff [13]: 1.6 s⁻¹

Binder: B7
fold reduction in platelet adhesion versus WT mouse protein [14]: ~5 fold | fold increase in translocation velocity versus WT mouse protein [15]: ~7 fold | binding result [16]: binds
